Common to all, as to assay: SPOT array
In assay [1] the target is T1, Boi1 SH3 (BOI1_YEAST), P38041.
T1 chain: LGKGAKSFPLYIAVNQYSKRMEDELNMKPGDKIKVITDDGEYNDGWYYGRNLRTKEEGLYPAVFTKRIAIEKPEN

For assay [2], the target named is T2, Boi2 SH3 (BOI2_YEAST), P39969.
T2 chain: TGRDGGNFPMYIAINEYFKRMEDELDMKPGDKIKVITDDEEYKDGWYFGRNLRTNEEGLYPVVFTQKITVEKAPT

For assay [3], the target named is T3, Rvs167 SH3 (RV167_YEAST), P39743.
T3 chain: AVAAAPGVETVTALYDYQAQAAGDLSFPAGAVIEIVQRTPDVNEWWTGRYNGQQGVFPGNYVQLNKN

For assay [4], the target named is T4, Yfr024 SH3 (LSB3_YEAST), P43603.
T4 chain: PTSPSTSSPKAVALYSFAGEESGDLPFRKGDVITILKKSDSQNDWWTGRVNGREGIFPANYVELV

The target in assay [5] is T5, Yhr016c SH3 (YSC84_YEAST), P32793.
T5 chain: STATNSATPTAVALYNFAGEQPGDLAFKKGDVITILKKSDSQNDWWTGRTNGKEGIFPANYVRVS

Consider MKAPKMPDKHRDNY [YDL031W 923-936], for which the normalised SPOT signal, Boehringer light units (BLU); mean over the file's lines of this peptide was 163 in assay [1]; 162 in assay [2]; 331 in assay [3]; 1760 in assay [4]; 399 in assay [5].
Turning to MALPRTPLKTSTEE [YCL009C 276-289], the normalised SPOT signal, Boehringer light units (BLU); mean over the file's lines of this peptide in assay [1] was 100; in assay [2], 101; in assay [3], 338; in assay [4], 1130; in assay [5], 280.
MVRPAPPRRADPEG [Q0297 11-24]: the normalised SPOT signal, Boehringer light units (BLU); mean over the file's lines of this peptide in assay [1] was 3640; in assay [2], 1310; in assay [3] it was 14400; in assay [4], 18800; in assay [5], 7790.
In the case of MTDPDAPSKTDHKW [YLR178C 93-106], the normalised SPOT signal, Boehringer light units (BLU); mean over the file's lines of this peptide in assay [1] was -0; in assay [2], 34.4; in assay [3], 32.5; in assay [4], 56.6; in assay [5], 109.
Consider MTAPLWPNKNEKNH [YOR337W 1-14], for which the normalised SPOT signal, Boehringer light units (BLU); mean over the file's lines of this peptide came to 32.9 in assay [1]; 25.8 in assay [2]; 55.3 in assay [3]; 109 in assay [4]; 257 in assay [5].
Taken in the same sequence, the figures for MTDPDAPSRTEHKW [YLR179C 77-90] were 124, 34.4, 23, 122 and 239.
Regarding MQGPKIPWRSGRVD [YKR066C 186-199], the normalised SPOT signal, Boehringer light units (BLU); mean over the file's lines of this peptide was 2850 in assay [1]; 651 in assay [2]; 1270 in assay [3]; 15900 in assay [4]; 13800 in assay [5].
MPTPMTPVKVGALA [YNL040W 1-14]: the normalised SPOT signal, Boehringer light units (BLU); mean over the file's lines of this peptide in assay [1] worked out at 13.5; in assay [2], 55; in assay [3] it was 11; in assay [4], 288; in assay [5] it was 66.7.
As for MVTPREPKKRTTRK [YPR052C 1-14], the normalised SPOT signal, Boehringer light units (BLU); mean over the file's lines of this peptide was found to be 187 in assay [1]; 88.4 in assay [2]; 163 in assay [3]; 620 in assay [4]; 768 in assay [5].
For the molecule MSLPVTPVKSKVSS [YER032W 50-63], the normalised SPOT signal, Boehringer light units (BLU); mean over the file's lines of this peptide in assay [1] amounted to 0.6; in assay [2], 37.9; in assay [3], 111; in assay [4], 2120; in assay [5] it was 257.
As to MRAPPSPRKSKSGH [YOR255W 1-14], the normalised SPOT signal, Boehringer light units (BLU); mean over the file's lines of this peptide in assay [1] came out at 81.1; in assay [2] it was 168; in assay [3] it was 261; in assay [4], 1240; in assay [5] it was 1100.
MEYPFKPPKMQFDT [YDR177W 60-73]: the normalised SPOT signal, Boehringer light units (BLU); mean over the file's lines of this peptide in assay [1] amounted to 56.3; in assay [2] it was 55.1; in assay [3] it was 68.7; in assay [4] it was 483; in assay [5], 178.
Turning to MVLPPAPPKNSDPS [YFL036W 764-777], the normalised SPOT signal, Boehringer light units (BLU); mean over the file's lines of this peptide was found to be 54 in assay [1]; 34.7 in assay [2]; 79.6 in assay [3]; 892 in assay [4]; 273 in assay [5].
Taken in the same sequence, the figures for MSEPEVPFKVVAQF [YJL020C 1-14] were 74.2, 64.8, 19.9, 48.9 and 105.
Take MLIPNFPNKKLKLN [YHR086W 128-141]: the normalised SPOT signal, Boehringer light units (BLU); mean over the file's lines of this peptide in assay [1] was 34.7; in assay [2], 59.7; in assay [3], 70.8; in assay [4], 1090; in assay [5] it was 423.
